Laboratory results published in US20240117030A1 (Pfizer, published 2024).

T1: recombinant cynomolgus monkey IL-23 (p19+p40) (cynomolgus monkey, UniProt H6WS56 20-189; G7P6S2 23-328)
T1 construct: also called Cyno IL-23
T1 sequence (p19): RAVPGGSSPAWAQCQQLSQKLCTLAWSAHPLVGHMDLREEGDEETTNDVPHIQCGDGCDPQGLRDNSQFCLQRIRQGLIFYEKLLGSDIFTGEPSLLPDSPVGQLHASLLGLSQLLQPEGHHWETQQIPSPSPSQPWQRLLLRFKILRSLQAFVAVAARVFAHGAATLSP
T1 sequence (p40): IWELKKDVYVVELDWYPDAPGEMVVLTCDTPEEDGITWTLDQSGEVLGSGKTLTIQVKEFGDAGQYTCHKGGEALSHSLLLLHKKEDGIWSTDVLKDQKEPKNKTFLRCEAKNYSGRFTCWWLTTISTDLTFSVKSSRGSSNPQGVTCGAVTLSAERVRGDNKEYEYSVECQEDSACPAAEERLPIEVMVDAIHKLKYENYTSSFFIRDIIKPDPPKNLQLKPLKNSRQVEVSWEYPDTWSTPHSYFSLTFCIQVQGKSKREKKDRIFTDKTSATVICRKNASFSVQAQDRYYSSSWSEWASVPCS

T2: recombinant cynomolgus monkey IL-12 (p35+p40) (cynomolgus monkey, UniProt A0A2K5V4L8 57-253; G7P6S2 23-328)
T2 construct: also called Cyno IL-12
T2 sequence (p35): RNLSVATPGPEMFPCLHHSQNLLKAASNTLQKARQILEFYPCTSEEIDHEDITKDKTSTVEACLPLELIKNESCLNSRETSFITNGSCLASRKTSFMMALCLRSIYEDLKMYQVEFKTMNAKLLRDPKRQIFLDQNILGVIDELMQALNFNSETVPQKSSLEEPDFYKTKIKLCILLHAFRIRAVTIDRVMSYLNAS
T2 sequence (p40): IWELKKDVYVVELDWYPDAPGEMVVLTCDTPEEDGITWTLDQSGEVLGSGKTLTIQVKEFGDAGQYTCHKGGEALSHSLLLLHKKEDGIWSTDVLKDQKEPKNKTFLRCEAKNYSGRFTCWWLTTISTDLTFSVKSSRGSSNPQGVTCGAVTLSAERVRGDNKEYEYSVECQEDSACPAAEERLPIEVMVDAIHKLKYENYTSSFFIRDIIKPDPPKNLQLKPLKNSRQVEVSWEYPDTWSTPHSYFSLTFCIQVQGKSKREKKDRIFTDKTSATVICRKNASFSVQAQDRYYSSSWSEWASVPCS

T3: recombinant human IL-12 (p35+p40) (human, UniProt P29459 23-219; P29460 23-328)
T3 sequence (looked up) 1: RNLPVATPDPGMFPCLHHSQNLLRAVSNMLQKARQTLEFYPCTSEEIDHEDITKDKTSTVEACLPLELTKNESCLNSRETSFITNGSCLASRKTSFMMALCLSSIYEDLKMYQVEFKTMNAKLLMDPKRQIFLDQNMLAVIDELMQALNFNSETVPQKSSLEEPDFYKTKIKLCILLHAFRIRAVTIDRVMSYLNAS
T3 sequence (looked up) 2: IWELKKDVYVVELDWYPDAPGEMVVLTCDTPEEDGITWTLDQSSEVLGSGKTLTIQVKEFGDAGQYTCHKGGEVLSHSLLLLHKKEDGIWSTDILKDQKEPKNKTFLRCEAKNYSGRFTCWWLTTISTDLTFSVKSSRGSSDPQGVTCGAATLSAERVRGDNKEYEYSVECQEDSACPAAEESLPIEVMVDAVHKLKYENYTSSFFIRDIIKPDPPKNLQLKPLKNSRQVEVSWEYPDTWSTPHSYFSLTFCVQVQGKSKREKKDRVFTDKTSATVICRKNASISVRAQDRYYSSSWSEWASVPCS

T4: recombinant human IL-23 (p19+p40) (human, UniProt Q9NPF7 20-189; P29460 23-328)
T4 sequence (looked up) 1: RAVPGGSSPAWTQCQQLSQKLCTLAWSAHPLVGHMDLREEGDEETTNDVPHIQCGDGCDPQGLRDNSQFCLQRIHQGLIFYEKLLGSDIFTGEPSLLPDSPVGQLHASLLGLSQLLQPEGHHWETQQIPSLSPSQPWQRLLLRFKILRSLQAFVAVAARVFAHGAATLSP
T4 sequence (looked up) 2: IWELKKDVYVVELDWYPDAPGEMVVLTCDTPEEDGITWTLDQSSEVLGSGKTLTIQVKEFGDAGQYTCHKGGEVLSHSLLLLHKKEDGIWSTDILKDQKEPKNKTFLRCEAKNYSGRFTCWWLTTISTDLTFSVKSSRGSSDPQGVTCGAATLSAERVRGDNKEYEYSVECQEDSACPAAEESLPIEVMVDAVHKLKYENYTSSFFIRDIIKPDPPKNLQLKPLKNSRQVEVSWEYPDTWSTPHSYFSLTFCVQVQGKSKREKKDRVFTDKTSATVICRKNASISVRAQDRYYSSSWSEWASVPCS


Experiments:
[1] = target: recombinant cynomolgus monkey TSLP (Pfizer) (cynomolgus monkey, UniProt A0A7N9CAT7 29-159); experiment: cell-based or functional assay
recombinant cynomolgus monkey TSLP (Pfizer), sequence (A0A7N9CAT7 entry or part of it): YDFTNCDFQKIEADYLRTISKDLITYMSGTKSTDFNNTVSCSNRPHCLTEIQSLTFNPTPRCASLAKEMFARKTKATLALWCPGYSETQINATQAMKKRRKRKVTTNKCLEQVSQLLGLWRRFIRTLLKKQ

[2] = target: T5, biotinylated cynomolgus monkey TSLP (Pfizer) (cynomolgus monkey, UniProt A0A7N9CAT7 29-159, biotinylated (Avi tag by Example 2)); experiment: KinExA, fixed antigen format, solution affinity, mean
T5 construct: Antigen of the KinExA fixed antigen assay
T5 sequence (A0A7N9CAT7 entry or part of it): as above
Procedure: (§1) Samples were prepared in PBS containing 0.1% sodium azide and 1.0 mg/ml BSA. A fixed antigen assay method was used to determine binding affinity. […] Data analysis was performed with the KinExA Pro software version 4.3.11 (Sapidyne). […] The ‘drift correction’ option was selected when responses varied between replicate injections. Two curves were obtained in independent experiments and analyzed using the ‘n-curve analysis’ tool to obtain global best fit values for the KD and active concentration of biotinylated TSLP. The software reports each best fit value along with a 95% confidence interval).

[3] = target: T6, biotinylated human TSLP (Pfizer) (human, UniProt Q969D9 29-159, biotinylated (Avi tag by Example 2)); experiment: as above
T6 construct: Antigen of the KinExA fixed antigen assay
Procedure: as §1

[4] = target: T1, recombinant cynomolgus monkey IL-23 …; experiment: SPR (Biacore T200, 37 C), antibody captured by anti-human Fc, cytokine injected
Procedure: (§2) For these analyses, kinetic assays were conducted at 37° C. at a collection rate of 10 Hz on a BIAcore™ T200 instrument (GE Healthcare).

[5] = target: T2, recombinant cynomolgus monkey IL-12 …; experiment: as above
Procedure: as §2

[6] = target: T3, recombinant human IL-12 (p35+p40); experiment: as above
Procedure: as §2

[7] = target: T4, recombinant human IL-23 (p19+p40); experiment: as above
Procedure: as §2

| Binder | IC50, TARC production bioassay, Human Whole Blood (median) [1] [nM] | IC50, TARC production bioassay, Peripheral Blood Monocytes (median) [1] [nM] | Kd [2] [nM] | Kd [3] [nM] | Kd [4] [nM] | Kd [5] [nM] | Kd [6] [nM] | Kd [7] [nM] |
| --- | --- | --- | --- | --- | --- | --- | --- | --- |
| IL413TSLP-1024 (antibody, RR-EE, LS; monovalent for TSLP) heavy: not shown light 1: SYVLTQPPSVSVAPGQTARITCGGNNLGSKSVHWYQQKPGQAPVLVVYDDKDRPSWIPERFSGSNSGNTATLTISRGEAGDEADYYCQVWDSKSDHVVFGGGTKLTVLGQPKAAPSVTLFPPSSEELQANKATLVCLISDFYPGAVTVAWKADSSPVKAGVETTTPSKQSNNKYAASSYLSLTPEQWKSHRSYSCQVTHEGSTVEKTVAPTECS chain 1: DIQMTQSPSSLSASVGDRVTITCKASESVDHFGWSLVHWYQQKPGKAPKLLIYRASNLESGVPSRFSGSGSGTDFTLTISSLQPEDFATYYCQQSNEDPWTFGGGTKVEIKRTVAAPSVFIFPPSDEQLKSGTASVVCLLNNFYPREAKVQWKVDNALQSGNSQESVTEQDSKDSTYSLSSTLTLSKADYEKHKVYACEVTHQGLSSPVTKSFNRGECGGGGSEVTLRESGPALVKPTQTLTLTCTFSGFSLSNFGEGLSWIRQPPGKGLEWLAHIYWDDDKRYNPSLKSRLTISKDTSRNQVVLTMTNMDPVDTATYYCARRETVFYWYFDVWGQGTTVTVSSASTKGPSVFPLAPSSKSTSGGTAALGCLVKDYFPEPVTVSWNSGALTSGVHTFPAVLQSSGLYSLSSVVTVPSSSLGTQTYICNVNHKPSNTKVDKKVEPKSCEKTHTCPPCPAPEAAGAPSVFLFPPKPKDTLMISRTPEVTCVVVDVSHEDPEVKFNWYVDGVEVHNAKTKPREEQYNSTYRVVSVLTVLHQDWLNGKEYKCKVSNKALPAPIEKTISKAKGQPREPQVYTLPPSREEMTKNQVSLTCEVKGFYPSDIAVEWESNGQPENNYKTTPPVLDSDGSFFLYSKLTVDKSRWQQGNVFSCSVLHEALHSHYTQKSLSLSPGK light 2: DIQMTQSPSSLSASVGDRVTITCRASQSVDEEGDSYMNWYQQKPGKAPKLLIYAASNLESGVPSRFSGSGSGTDFTLTISSLQPEDFATYYCQQSNKDPPTFGGGTKVEIKRTVAAPSVFIFPPSDEQLKSGTASVVCLLNNFYPREAKVQWKVDNALQSGNSQESVTEQDSKDSTYSLSSTLTLSKADYEKHKVYACEVTHQGLSSPVTKSFNRGEC chain 2: EVQLVESGGGLVQPGGSLRLSCAASGFTFSSYAMSWVRQAPGKGLEWVASISSGDTTYYPDSVKGRFTISRDNAKNSLYLQMNSLRAEDTAVYYCARNEGYYFGLTLWGQGTLVTVSSASTKGPSVFPLAPSSKSTSGGTAALGCLVKDYFPEPVTVSWNSGALTSGVHTFPAVLQSSGLYSLSSVVTVPSSSLGTQTYICNVNHKPSNTKVDKKVEPKSC | 0.0327 | 0.03 | 0.00631 | 0.00303 |  |  |  |  |
| p40-0003 (antibody, human IgG1, kappa, V domains shown, also called p40 mAb; ustekinumab (C230) variable regions on human IgG1 effector-null) VH: EVQLVQSGAEVKKPGESLKISCKGSGYSFTTYWLGWVRQMPGKGLDWIGIMSPVDSDIRYSPSFQGQVTMSVDKSITTAYLQWNSLKASDTAMYYCARRRPGQGYFDFWGQGTLVTVSS VL: DIQMTQSPSSLSASVGDRVTITCRASQGISSWLAWYQQKPEKAPKSLIYAASSLQSGVPSRFSGSGSGTDFTLTISSLQPEDFATYYCQQYNIYPYTFGQGTKLEIKR |  |  |  |  | 0.317 | 0.368 | 0.156 | 0.16 |
